How the values were obtained:
Test in all cases: UV-crosslinking of recombinant p37AUF1 to radiolabeled RNA
Format in all cases: binding
Conditions in all cases: UV irradiation, Rnase A+T1 digestion, SDS-PAGE, autoradiography
c-fos ARE = system: c-fos ARE
Source text: (§1) FIG. 5 represents an autoradiogram showing UV-crosslinking of purified, recombinant p37AUF1 polypeptide to human β1-AR 3′UTR RNA. Autoradiogram of recombinant p37AUF1 UV-crosslinked to radiolabeled, in vitro transcribed human β1-AR 3′UTR RNA. Lane 1, β1-AR RNA in the absence of competitor RNA. Lanes 2 and 3, β1-AR RNA is the presence of 10-fold and 100-fold molar excess of unlabeled β1-AR RNA. Lane 4, β1-AR RNA in the presence of 100-fold molar excess of rabbit β-globin RNA (Rb). Lane 5, c-fos ARE only. Lane 6, rabbit β-globin RNA only.
(§2) To show AUF1 binds to the human β1-AR 3′UTR, radiolabeled RNA was incubated with purified, recombinant p37AUF1, subjected to UV irradiation, Rnase A+T1 digestion, SDS-PAGE, and autoradiography. Recombinant p37AUF1 polypeptide binds to the β1-AR 3′UTR and to the c-fos ARE but fails to bind to rabbit β-globin (Rβ) RNA (FIG. 5).
(§3) A 0.3M KC1 ribosomal salt wash (RSW) was produced from DDT1-MF2 cells using the method of Brewer and Ross, Methods in Enzyznology 181:202-209 (1990). UV-crosslinking was performed as described in Port et al., J. Biol. Chem. 267:24103-24108 (1992) Briefly, an aliquot of radiolabeled RNA (1-4×10^6 cpm) was added to a mixture containing 20 μl of RSW (˜5×10^6 cell equivalents/μl) from DDT1-MF2 cells, 5 μg of yeast tRNA, 4 mM dithiothreitol, 5 μg heparin, and 65 units of Rnasin™ in a total volume of 50 μl. […]

rabbit β-globin (Rβ) RNA = system: rabbit β-globin (Rβ) RNA
Source text: as §1, §2, §3

human β1-AR 3′UTR RNA = system: human β1-AR 3′UTR RNA
Source text: as §1, §2
A 919 bp cDNA fragment corresponding to the β1AR 3′ UTR was synthesized by PCR and subcloned into pcDNA3 (Invitrogen) utilizing the Xho I and Xba I restriction endonuclease sites. The resulting vector was linearized with Xba I, and in vitro transcription was performed as described in Port et al., J. Biol. Chem. 267:24103-24108 (1992). Briefly, radiolabeled RNA was synthesized using T7 DNA-directed RNA polymerase and [α-^32P]UTP (800 Ci/mmol, New England Nuclear) to produce uniformly labeled, 5′-capped RNA. […]

binding to c-fos ARE (c-fos ARE): binds | binding to rabbit β-globin (Rβ) RNA (rabbit β-globin (Rβ) RNA): fails to bind | binding to β1-AR 3′UTR (human β1-AR 3′UTR RNA): binds
B1: p37AUF1: purified, recombinant p37AUF1 polypeptide (His6 fusion expressed in E. coli), A+U-rich element RNA-binding factor (protein)
chain: MSEEQFGGDGAAAAATAAVGGSAGEQEGAMVAATQGAAAAAGSGAGTGGGTASGGTEGGSAESEGAKIDASKNEEDEGKMFIGGLSWDTTKKDLKDYFSKFGEVVDCTLKLDPITGRSRGFGFVLFKESESVDKVMDQKEHKLNGKVIDPKRAKAMKTKEPVKKIFVGGLSPDTPEEKIREYFGGFGEVESIELPMDNKTNKRRGFCFITFKEEEPVKKIMEKKYHNVGLSKCEIKVAMSKEQYQQQQQWGSRGGFAGRARGRGGDQQSGYGKVSRRGGHQNSYKPY
modifications: left off: small tags and cut ends

Source: patent publication US6436636B1, “Methods for identifying pharmacologicals for the treatment of heart failure” (Wake Forest University, priority 1995, dated 2002)
